The target in one data set is T1, Lhr-CTD (Escherichia coli MG1655, UniProt P30015 876-1538).
T1 sequence: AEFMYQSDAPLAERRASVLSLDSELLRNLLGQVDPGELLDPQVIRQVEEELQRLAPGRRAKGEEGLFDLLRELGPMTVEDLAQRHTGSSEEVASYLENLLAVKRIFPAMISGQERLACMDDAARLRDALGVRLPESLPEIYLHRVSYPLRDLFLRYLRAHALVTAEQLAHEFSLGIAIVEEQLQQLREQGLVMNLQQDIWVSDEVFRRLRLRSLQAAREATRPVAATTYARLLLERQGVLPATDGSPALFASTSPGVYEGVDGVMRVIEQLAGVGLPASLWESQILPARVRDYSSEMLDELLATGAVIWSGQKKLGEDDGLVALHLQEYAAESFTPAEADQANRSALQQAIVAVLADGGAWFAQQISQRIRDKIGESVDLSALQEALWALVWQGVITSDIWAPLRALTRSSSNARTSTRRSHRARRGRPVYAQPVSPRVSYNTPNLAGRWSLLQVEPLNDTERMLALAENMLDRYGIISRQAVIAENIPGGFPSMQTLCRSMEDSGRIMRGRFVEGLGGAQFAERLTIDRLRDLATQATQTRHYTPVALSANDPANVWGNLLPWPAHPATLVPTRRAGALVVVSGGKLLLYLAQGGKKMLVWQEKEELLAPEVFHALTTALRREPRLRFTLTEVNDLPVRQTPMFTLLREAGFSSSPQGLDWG
Nature of the data set: EMSA; 5 mM EDTA; 12.5-200 nM protein, 12.5 nM DNA; no stable complex; 20 mM Tris pH 7.5, 10% glycerol, 100 ug/mL BSA, 25 mM DTT, 5 mM EDTA, 12.5 nM Cy5-DNA; 37 C 20 min then ice 10 min; 5% acrylamide TBE gel. The following applies: protein: recombinant; tags: pNH-TrxT vector (GU269914.1); label: 5' Cy5; single strand.

For another data set, the target named is Lhr (Escherichia coli MG1655, UniProt P30015 1-1538). Put plainly: EMSA; 5 mM EDTA; 12.5-200 nM protein, 12.5 nM DNA; 20 mM Tris pH 7.5, 10% glycerol, 100 ug/mL BSA, 25 mM DTT, 5 mM EDTA, 12.5 nM Cy5-DNA; 37 C 20 min then ice 10 min; 5% acrylamide TBE gel. The following applies: protein: recombinant; tags: His6; label: 5' Cy5; single strand. For orientation: In EMSA bound probe runs differently from free probe, usually more slowly.

From publication PMC10953399, “Escherichia coli DNA repair helicase Lhr is also a uracil‐DNA glycosylase” come the findings set out here.

For TCGGATCCTCTAGACAGCTCCATGATCACTGGCACTGGTAGAATTCGGC (ssDNA) [Cy5-ssDNA (EMSA)], the binding result in the data set with Lhr-CTD was “no binding”; with Lhr, “binds”.
